Patent US6492116, “Assay for identifying inhibitors of the interaction between proteins p53 and dm2” (Cancer Research Campain Technology Ltd.)

Molecular target: p53D30 (human p53 residues 1-362) (Homo sapiens, UniProt P04637 SEQ:1-362)
Experiment: EMSA; 50 mM Tris-HCl, 50 mM NaCl, 5% glycerol, 0.1% Triton X-100, 10 mM DTT, 50 ug/ml poly(dI-dC), pH 7.6, 22 C; monoclonal antibodies included as mentioned; gel result not shown in the text
Settings: chain copies: 4; label: 33P 5' end; HindIII-compatible 5' overhangs
Description: A 20 μl reaction volume containing 50 mM Tris. HCI, 50 mM NaCI, 5% (v/v) glycerol, 0.1% (v/v) Triton X-100, 10 mM DTT and 50 μg/ml polydeoxyinosinic-deoxycytidylic acid–pH=7.6 (binding buffer) are incubated for 30 min at 22° C. in the presence of the indicated amounts of p53D30, of radiolabelled oligonucleotides and of the mentioned monoclonal antibodies. Reactions are loaded onto a native 4% polyacrylamide gel containing 0.5×Tris.HCI–boric acid–pH=8.0 which had undergone pre-electrophoresis at 200 V for 45 min at 4 ° C. Electrophoresis is continued at 200 V from 90 to 120 min at 4° C. Gels are dried prior exposure to X-ray film (Amersham Hyperfilm-MP).

Chain of p53D30 (human p53 residues 1-362) (P04637 1-362): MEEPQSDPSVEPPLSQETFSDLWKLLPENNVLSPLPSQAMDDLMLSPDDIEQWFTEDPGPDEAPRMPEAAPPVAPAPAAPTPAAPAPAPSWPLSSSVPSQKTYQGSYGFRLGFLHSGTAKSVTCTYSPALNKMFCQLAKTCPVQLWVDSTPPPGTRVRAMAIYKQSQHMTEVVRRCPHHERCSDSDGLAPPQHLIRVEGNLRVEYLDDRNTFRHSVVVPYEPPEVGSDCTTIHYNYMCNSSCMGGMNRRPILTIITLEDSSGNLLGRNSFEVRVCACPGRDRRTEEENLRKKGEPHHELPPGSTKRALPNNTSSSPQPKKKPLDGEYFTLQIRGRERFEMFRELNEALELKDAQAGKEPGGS

B1: p53 consensus site oligonucleotide I/II (dsDNA)
DNA 1: AGCTTAGACATGCCTAGACATGCCTA
DNA 2: AGCTTAGGCATGTCTAGGCATGTCTA
Q: Does B1 bind?
A: Result: binds
